In PMC6900541 (Proceedings of the National Academy of Sciences of the …, 2019):

Target: T1, human PD-L2 ectodomain (human, UniProt Q9BQ51 20-220)
T1 sequence: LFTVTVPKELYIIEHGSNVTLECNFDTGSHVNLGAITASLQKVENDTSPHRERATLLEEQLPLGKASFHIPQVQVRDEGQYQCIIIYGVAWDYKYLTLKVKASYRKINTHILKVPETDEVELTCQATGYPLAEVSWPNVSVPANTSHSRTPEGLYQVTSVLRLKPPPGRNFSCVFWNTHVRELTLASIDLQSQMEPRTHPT
Assay: BLI

B1: human PD-1 triple mutant (N74G T76P A132V), PD-1-Fc (Fc fusion)
chain: LDSPDRPWNPPTFSPALLVVTEGDNATFTCSFSNTSESFVLNWYRMSPSGQPDKLAAFPEDRSQPGQDCRFRVTQLPNGRDFHMSVVRARRNDSGTYLCGAISLAPKVQIKESLRAELRVTERRAEVPTAHPSPSPRPAGQFQTLV
Work on B1 yielded a Kd of 2.6 nM.
